Measured values: patent US20170267780A1

Tests used:
Fcγ IIa = Fcγ IIa (UniProt P12318); assay: effector binding, values nM, method not stated
C1q = C1q (UniProt P02745); assay: effector binding, values nM, method not stated
Fcγ IIIa (158 F) = Fcγ IIIa (158 F) (UniProt P08637); assay: effector binding, values nM, method not stated
Fcγ RIa = Fcγ RIa (UniProt P12314); assay: effector binding, values nM, method not stated
[1] = molecular target: Cyno FcRn (cynomolgus monkey) (UniProt Q8SPV9); assay: SPR (ProteOn), IgG immobilised, cyno FcRn, pH 6.0
Cyno FcRn (cynomolgus monkey), sequence (Q8SPV9 24-297 limits assumed, chain 1 of 2): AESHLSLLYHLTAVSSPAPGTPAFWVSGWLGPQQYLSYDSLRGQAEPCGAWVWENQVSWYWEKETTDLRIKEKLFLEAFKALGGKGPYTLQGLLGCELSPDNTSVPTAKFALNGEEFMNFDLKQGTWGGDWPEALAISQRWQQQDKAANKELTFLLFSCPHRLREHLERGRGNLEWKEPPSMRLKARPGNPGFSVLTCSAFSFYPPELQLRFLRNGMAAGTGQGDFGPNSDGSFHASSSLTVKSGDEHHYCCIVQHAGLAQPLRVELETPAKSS
Cyno FcRn (cynomolgus monkey), sequence (Q8SPW0 21-119 limits assumed, chain 2 of 2, further chain): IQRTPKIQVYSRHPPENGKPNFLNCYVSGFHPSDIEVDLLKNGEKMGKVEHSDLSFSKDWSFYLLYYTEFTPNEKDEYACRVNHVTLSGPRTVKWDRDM

[2] = molecular target: Recombinant human FcRn (human) (UniProt P55899); assay: SPR (ProteOn), IgG immobilised, pH 6.0
Recombinant human FcRn (human), sequence (P55899 24-297 limits assumed, chain 1 of 2): as the sequence (Q8SPV9 24-297 limits assumed, chain 1 of 2) above, with D39N, Q44E, S99G, G189S, N190S, M217L, T269S counted along it
Recombinant human FcRn (human), sequence (b2m, as listed by the source limits assumed, chain 2 of 2): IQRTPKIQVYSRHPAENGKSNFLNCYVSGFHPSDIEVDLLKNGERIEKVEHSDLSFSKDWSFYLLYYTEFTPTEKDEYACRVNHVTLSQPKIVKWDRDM

[3] = molecular target: Recombinant human FcRn (human) (UniProt P55899); assay: SPR (ProteOn), IgG immobilised, pH 7.4
Fcγ IIb = Fcγ IIb (UniProt P31994); assay: effector binding, values nM, method not stated
Fcγ IIb, sequence (P31994 43-217 limits assumed): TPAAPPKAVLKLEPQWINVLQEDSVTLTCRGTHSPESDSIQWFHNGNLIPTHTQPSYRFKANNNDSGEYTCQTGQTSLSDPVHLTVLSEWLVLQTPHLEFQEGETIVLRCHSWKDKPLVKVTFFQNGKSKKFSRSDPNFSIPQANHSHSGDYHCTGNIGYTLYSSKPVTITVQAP

Fcγ IIIa (158 V) = Fcγ IIIa (158 V) (UniProt P08637); assay: effector binding, values nM, method not stated
Fcγ IIIa (158 V), sequence (P08637 17-208 F176V limits assumed): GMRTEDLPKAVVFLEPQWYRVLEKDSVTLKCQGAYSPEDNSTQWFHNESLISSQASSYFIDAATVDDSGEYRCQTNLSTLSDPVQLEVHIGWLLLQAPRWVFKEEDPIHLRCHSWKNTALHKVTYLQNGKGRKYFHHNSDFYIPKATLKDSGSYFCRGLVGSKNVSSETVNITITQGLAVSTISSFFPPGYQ

[4] = molecular target: Cyno FcRn (cynomolgus monkey) (UniProt Q8SPV9); assay: SPR (ProteOn), IgG immobilised, cyno FcRn, pH 7.4

C1q, sequence (P02745 23-245, chain 1 of 3): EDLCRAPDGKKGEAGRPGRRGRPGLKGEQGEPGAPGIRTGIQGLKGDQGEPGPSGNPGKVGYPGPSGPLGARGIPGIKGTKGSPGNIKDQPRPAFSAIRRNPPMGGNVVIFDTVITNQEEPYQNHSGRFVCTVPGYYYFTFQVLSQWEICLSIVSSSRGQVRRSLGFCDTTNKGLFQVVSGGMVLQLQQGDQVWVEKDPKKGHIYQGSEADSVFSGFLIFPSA
C1q, sequence (P02746 28-253, chain 2 of 3, further chain): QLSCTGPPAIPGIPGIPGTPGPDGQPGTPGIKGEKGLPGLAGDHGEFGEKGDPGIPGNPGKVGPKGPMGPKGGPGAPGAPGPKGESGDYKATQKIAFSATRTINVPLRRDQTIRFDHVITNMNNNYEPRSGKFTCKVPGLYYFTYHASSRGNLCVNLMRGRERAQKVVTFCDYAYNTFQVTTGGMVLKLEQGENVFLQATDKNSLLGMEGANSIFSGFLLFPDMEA
C1q, sequence (P02747 29-245, chain 3 of 3, further chain): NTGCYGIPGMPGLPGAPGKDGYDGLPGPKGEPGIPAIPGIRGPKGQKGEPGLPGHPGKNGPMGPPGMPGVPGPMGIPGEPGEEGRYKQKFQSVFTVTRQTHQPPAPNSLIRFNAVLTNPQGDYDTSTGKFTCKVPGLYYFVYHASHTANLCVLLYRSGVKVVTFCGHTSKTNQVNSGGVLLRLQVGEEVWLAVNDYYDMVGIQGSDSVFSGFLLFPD
Fcγ IIIa (158 F), sequence (P08637 17-208 limits assumed): as the sequence (P08637 17-208 F176V limits assumed) above, with V160F counted along it
Fcγ IIa, sequence (P12318 34-217 limits assumed): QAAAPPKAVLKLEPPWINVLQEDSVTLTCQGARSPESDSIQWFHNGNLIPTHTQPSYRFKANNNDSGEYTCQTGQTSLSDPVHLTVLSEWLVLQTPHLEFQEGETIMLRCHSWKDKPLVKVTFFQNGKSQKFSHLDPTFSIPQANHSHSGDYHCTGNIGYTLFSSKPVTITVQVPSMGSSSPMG
Fcγ RIa, sequence (P12314 16-288 limits assumed): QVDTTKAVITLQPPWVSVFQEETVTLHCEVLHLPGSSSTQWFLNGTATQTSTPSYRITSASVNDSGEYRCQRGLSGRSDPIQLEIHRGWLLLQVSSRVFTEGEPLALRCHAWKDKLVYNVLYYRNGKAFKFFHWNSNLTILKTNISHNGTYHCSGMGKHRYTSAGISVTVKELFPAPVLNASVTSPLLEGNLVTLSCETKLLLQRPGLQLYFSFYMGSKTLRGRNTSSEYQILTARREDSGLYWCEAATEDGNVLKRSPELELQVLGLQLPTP

## Wildtype Motavizumab (antibody)
Fcγ IIa
  Kd: 506 nM
C1q
  Kd: 328 nM
Fcγ IIIa (158 F)
  Kd: 4140 nM
Fcγ RIa
  Kd: 45.8 nM
[1]
  Kd: 1920 nM

## HB20.3 (anti-CD20) IgG1 YTE (antibody)
[2]
  Kd: 215 nM
[3]
  Kd: 5800 nM

## Motavizumab YTE (antibody)
C1q
  Kd: 482 nM
Fcγ IIb
  Kd: 1950 nM
Fcγ IIIa (158 V)
  Kd: 245 nM
Fcγ IIIa (158 F)
  Kd: 6060 nM
[1]
  Kd: 275 nM
[2]
  Kd: 314 nM
[4]
  Kd: 8000 nM
